The DeepSol protein solubility set

test: soluble on expression in E. coli; label from the status in PepcDB or PDB records

Soluble on expression in E. coli, not soluble:
MTAPFKDHFSTGSANYAAHRPTYPAQLVDELAALCPGTRLALDCGCGTGQLTVLLAERFERVVGTDASAAQIDKAQARERVEYRVALAEDSGLAAASADLVTVAQAAHWLDLPRFYEEVRRVARADAILALVTYGVLHVDGPMEPLVQHFYHQVVGPYWPAERRHVEEGYRNLPFPFEERRLPDLAIEVAWTLDELLGYVGTWSAVKEAGKALGQDPGAAFVDELREAWGDPQTRYRVSWPLTVRAGVIR
MSKFAMVFPGQGSQSLGMLADLAAQFPIVEATFSEASSVLGYDLWQLVQQGPAEELNKTWQTQPALLTASVAIWRIWQHQGGKLPSLMAGHSLGEYSALVCAGVLDFKQAVSLVELRGKLMQEAVPEGTGAMYAIIGLDNESIAKACEESAQGQVVSPVNFNSPGQVVIAGNKDAVERAGAACKAAGAKRALPLPVSVPSHCALMKPAADKLAVALEKIDFQEPLFPVVNNVDVKAEVSPVAIRSALVRQLYNPVRWTESVEFIAAEGVELLLEIGPGKVLTGLTKRIVDSLAAAAVNDVVTLNSALEH
MGHHHHHHSHMEEERRDDYKFLRIQDAFKALHLHVNLIGVIVELGFSNGSDCSCTLKIVDPWYSGSGLPVKFVARTIRDLPRVESIGDIILLSRVKIVLINRKITALCNETTSSSFALFNGKHSVDSIPYQSSPKFLMREQDKNFLSNLREWMITYKFEDGS
LSFQDELMRALNPDVLVVQKRPEGVLPLDELVRRIEGAEPGRKVAFVWVEMDSDKAGRIFYTPPPGQRRGESRWIDPYTGAFVGEPRGEGFFNLMMQLHRFLAMGEYGKQV
MRGRWPYEEKPLIVFWESTKACLLACKHCRAEALTEPQPGELSTREALALVDQVVEFGRPYPILVITGGDPLMRRDFWRILEYAVSQGLRVAVAPSVTPLLTREVVRRMARMGVARISISIDSGLPEVHDAIRGVPGTFKASVNIVREALAAGLPVQINTTVMKPTVDSLPETLKLLLDLGVDVWEVFYVVPTGRAARILDLTPSEWEDVSNYLYDASRYGVLVRTVEGPMFRRIALTRRLLENMGLDWRNR
MGSDKIHHHHHHVKFRVERDVLAEAVTWTARSLSPRPPVPVLSGLLLKAEAGTVSLSSFDYETSARLEIPADISVEGTILVSGRLLADICRSLPSAPVDVETDGNKVTLTCRRSSFHLATMPEAEYPPLPALPTISGTVPGDSFAQAVSQVIIAASKDDTLPILTGVRMEIEDDLITLLATDRYRLAMREVPWKPVTPGISTSALVKAKTLNEVAKTLGNSGDINLALADDDSRLIGFESGGRTTTSLLVDGDYPKIRSLFPDATPIHATVQTQELVEAVRRVSLVAERNTPVRLAFTDGQLHLDAGTGEDAQASEELEAQLTGDEITVAFNPHYLIEGLSVIETKFVRFSFTTAPKPAMITAQVDADGEDQDDYRYLVMPVRLPN
MGHHHHHHSHMANSAGSMANSAGSKEFAYQNKVEELTSYAVQIANEFQSGQVDMRRLYPYQDILSTRKTQFIIFNEEQQPYFLPEGFHHPPREQLKKSEWNKLKKGQTVTIRADGRFDDEVSLVAQPIFVQNEFKGAVLLISPISGVEQMVNQ
MSERRDCIVCTSGTCGRSWVFFRSGSGRRCIRSIFRESEGRTFGSNRISGSADHWTAIVERRKSRERGSKMKKEMTNDMTVGSPTKLIIQFMIPMCLGNVFQQFYNIADS
MLNKRHLPSIAALQCFEAVTRHLSFTRAAEELNLTQSAVSKQVAQLEELVQHLLFQRVRRRLQLTPAGALYLAEVRKILTQIEMSTHFLRSYGGETEVLRVSTPSTFGARWLVPRLKGWRLRHPHIHLDLINEQESDDLLKGRCDVSFYFGQAAIPGAESVKLFGEELVPVCSPDSLPAEPFTDPTQLSELVLLQNAFRPQAWHEWFESQGYHTDHSYHGPRFETFYMCIRAAQVGCGVALLPRFLVEEELAEGKLVIAWDYALPSTNSAYYLSYPEHTADVPKIRVFLQWMLEQLDQPAR
MARPIGIYEKATPKQFTWRERLQFAKDLGFDFVEMSVDESDARLARLEWTKEERLDLVKAIYETGIRIPTICFSGHRRYPLGSNDPAIEAKSLKLMKQCIELAQDLGVRTIQLAGYDVYYEKKSPETRARFIKNLRQSCDWAEEAQVMLSIEIMDDPFINSIEKYLAVEKEIDSPYLFVYPDAGNVSAWHNDLWSEFYNGHKSIAALHLKDTYAVTETSKGQFRDVPFGQGCVDWQELFAVLKKTNYNGPFLIEMWSENCDTVEETKAAIKEAQDFLYPLIEKAGLT
MGSDKIHHHHHHMWFRNLLVYRLTQDLQLDADSLEKALGEKSARPCASQELTTYGFTAPFGKGPDAPLVHVSQDFFLISARKEERILPGSVVRDALKEKVDEIEAQQMRKVYKKERDQLKDEIVQTLLPRAFIRRSSTFAAIAPSLGLILVDSASAKKAEDLLSTLREALGSLPVRPLSVKVAPTATLTDWVKTQEAAGDFHVLDECELRDTHEDGGVVRCKRQDLTSEEIQLHLTAGKLVTQLSLAWSDKLSFVLDDKLAVKRLRFEDLLQEQAEKDGGEDALGQLDASFTLMMLTFAEFLPALFEALGGEEIPQGV
MAQTQSPLQWLATTLIRGYQIFISPILGPRCRFNPTCSHYAIEAIKVHGTAKGCWFALKRILKCHPLHPGGSDPVPPKNDRCNKLEHHHHHH
MARGIKLVIFDVDGVLVEVKSSWGYIHRRLGVEEEAMKVKEMFERGSIDYIEWMRLDTELWIRASGGRLHRSRLMEIVGEIPVRKEAFEAVRMLRRMGLRIGLVSSGIDLLVRRVAAEIGADAWASNRLLFDKNGFLQPGGSPLVGVDKRGAVTRMAYELGASLEEVAYVGDSRWDASAMSIVGLPIAYNDGGELDGVARARVDSLLDVPRVVAEWGRARAR
MKFTSLLTAGALASTLVSPAIMAADTASASLSDAQKKEIEKVIHDYLINNPEVLLEASQALQQKQQQNMQQQAQAAIQENAEQVFQGKLTTVGNPKGNVTLVEFFDYQCIHCKKMASTIENLVKKDSGLRVIYKEFPIFGKTSDLASRVALAAGMQGKYQAMHNALITIDKRLDEKTVMDAAKSIGLDMQKLKKDMDSQEVTDILDANRQLAEKLHLMGTPAFIIGSTPDGQYKKGSEISFIPGATSEQSLRELIKKAAGN

Soluble on expression in E. coli, soluble:
MLHTTQLYQHVPETRWPIVYSPRYNITFMGLEKLHPFDAGKWGKVINFLKEEKLLSDSMLVEAREASEEDLLVVHTRRYLNELKWSFAVATITEIPPVIFLPNFLVQRKVLRPLRTQTGGTIMAGKLAVERGWAINVGGGFHHCSSDRGGGFCAYADITLAIKFLFERVEGISRATIIDLDAHQGNGHERDFMDDKRVYIMDVYNRHIYPGDRFAKQAIRRKVELEWGTEDDEYLDKVERNIKKSLQEHLPDVVVYNAGTDILEGDRLGGLSISPAGIVKRDELVFRMVRGRRVPILMVTSGGYQKRTARIIADSILNLFGLGLIGPESPSVSAQNSDTPLLPPAVP
MNKRDYMNTSVQEPPLDYSFRSIHVIQDLVNEEPRTGLRPLKRSKSGKSLTQSLWLNNNVLNDLRDFNQVASQLLEHPENLAWIDLSFNDLTSIDPVLTTFFNLSVLYLHGNSIQRLGEVNKLAVLPRLRSLTLHGNPMEEEKGYRQYVLCTLSRITTFDFSGVTKADRTTAEVWKRMNIKPKKAWTKQNTL
SAEDELVEIVPNMNMEQLNFISGDFGRFIPQIPTKVPLWLAVALKRRGKCTFRPPGWMSVDNLTQILEAERESQSTFQALPFSYVEIARLLFDHARDDIPDMYMVRSLVEDIRDVRLHKLETNLGSFQGTSAVKISNVSAMEVNIVRPFVIRALEAFYKHDKPEADVDRDTRSSRQQRETNNEPRRPLRQR
MHHHHHHGGGGGMINKPNQFVNHLSALKKHFASYKELREAFNDYHKHNGDELTTFFLHQFDKVMELVKQKDFKTAQSRCEEELAAPYLPKPLVSFFQSLLQLVNHDLLEQQNAALASLPAAKIIELVLQDYPNKLNMIHYLLPKTKAFVKPHLLQRLQFVLTDSELLELKRFSFFQALNQIPGFQGEQVEYFNSKLKQKFTLTLGEFEIAQQPDAKAYFEQLITQIQQLFLKEPVNAEFANEIIDAFLVSYFPLHPPVPLAQLAAKIYEYVSQIVLNEAVNLKDELIKLIVHTLYEQLDRPVGDEN
MSTPGTLHIVATPIGNLGDLSPRAQHILRTVTMICAEDTRHTRQLLAHFGIERPLLALHAHNEDTLAERIITRLISGASLALVSDAGTPLISDPGFLLVRAARAAGIRVTPVPGPSALIAALSVSGLPSNRFTFEGFLPAKPTARRDRLTHLAHEPRTLIFYEASHRIAECLTDLATIFGSMRAAVVARELTKIFETVLDGTLATLQTQVANDDNQRKGEFVIIVQGAADQDAAKITEGRRVYALLKEHLPPSSAAKLAAEITGAPRKALYGG
SMRYRQITIPRGKDGFGFTICCDSPVRVQAVDSGGPAERAGLQQLDTVLQLNERPVEHWKCVELAHEIRSCPSEIILLVWRMVPQVKPGPD
MKHSGYLWAIGKNVWKRWKKRFFVLVQVSQYTFAMCSYREKKAEPQELLQLDGYTVDYTDPQPGLEGGRAFFNAVKEGDTVIFASDDEQDRILWVQAMYRATGQSHKPVPPTQ
MTAHRSVLLVVHTGRDEATETARRVEKVLGDNKIALRVLSAEAVDRGSLHLAPDDMRAMGVEIEVVDADQHAADGCELVLVLGGDGTFLRAAELARNASIPVLGVNLGRIGFLAEAEAEAIDAVLEHVVAQDYRVEDRLTLDVVVRQGGRIVNRGWALNEVSLEKGPRLGVLGVVVEIDGRPVSAFGCDGVLVSTPTGSTAYAFSAGGPVLWPDLEAILVVPNNAHALFGRPMVTSPEATIAIEIEADGHDALVFCDGRREMLIPAGSRLEVTRCVTSVKWARLDSAPFTDRLVRKFRLPVIGWRGK
MNLHEYQAKQLFARYGLPAPVGYACTTPREAEEAASKIGAGPWVVKCQVHAGGRGKAGGVKVVNSKEDIRAFAENWLGKRLVTYQTDANGQPVNQILVEAATDIAKELYLGAVVDRSSRRVVFMASTEGGVEIEKVAEETPHLIHKVALDPLTGPMPYQGRELAFKLGLEGKLVQQFTKIFMGLATIFLERDLALIAINPLVITKQGDLICLDGKLGADGNALFRQPDLREMRDQSQEDPREAQAAQWELNYVALDGNIGCMVNGAGLAMGTMDIVKLHGGEPANFLDVGGGATKERVTEAFKIILSDDKVKAVLVNIFGGIVRCDLIADGIIGAVAEVGVNVPVVVRLEGNNAELGAKKLADSGLNIIAAKGLTDAAQQVVAAVEGK
MSLNQQYNAFSVLVVDDELGMQAILKKALGKLFSHVDTAGSIEEAEQLRNSRHYDLILLDINLPGRSGIEWEEAFEDDEKRADVIFMTGYADLEIAIRALQLGASDFILKPFNLEQMLKAVSRCMDRRLNERMQYAMKRDYQRHNTSEIIGGSEKTRQLKQLITQFAPSRASVLVEGESGTGKELVARGIHQASGRTGPFVPINCGAIAPELLESELFGHTSGAFTGAKKSREGLFRVANGGTLFLDEIGEMPLSMQASLLRVLEQRTIRPVGSEREISIDVRIVAATNRNLQEEVNQGNFRSDLYYRLNVLKIEVCPLRERKTDLFELVPFFSNMLTRELGMPAPKWAHEDMEAMSEYDWPGNIRELKNLIERCILLGKPPAHYWRELNGGHSLPNVSEGHHHHHH
